# Results taken from patent US20060051737A1 (ROCKEFELLER UNIVERSITY, published 2006).
# Target: T1, human Rif1 (human, UniProt Q5UIP0 1-2472)
# T1 construct: Endogenous protein in extracts or fixed cells of human cell lines (e.g. HeLa); It is seen as a >250 kDa polypeptide; the predicted protein has 2472 amino acids and 274 kDa; also called hRif1
# Assay: co-immunoprecipitation
# T1 sequence (Q5UIP0 other isoform, or with tags, fused parts or gaps limits assumed): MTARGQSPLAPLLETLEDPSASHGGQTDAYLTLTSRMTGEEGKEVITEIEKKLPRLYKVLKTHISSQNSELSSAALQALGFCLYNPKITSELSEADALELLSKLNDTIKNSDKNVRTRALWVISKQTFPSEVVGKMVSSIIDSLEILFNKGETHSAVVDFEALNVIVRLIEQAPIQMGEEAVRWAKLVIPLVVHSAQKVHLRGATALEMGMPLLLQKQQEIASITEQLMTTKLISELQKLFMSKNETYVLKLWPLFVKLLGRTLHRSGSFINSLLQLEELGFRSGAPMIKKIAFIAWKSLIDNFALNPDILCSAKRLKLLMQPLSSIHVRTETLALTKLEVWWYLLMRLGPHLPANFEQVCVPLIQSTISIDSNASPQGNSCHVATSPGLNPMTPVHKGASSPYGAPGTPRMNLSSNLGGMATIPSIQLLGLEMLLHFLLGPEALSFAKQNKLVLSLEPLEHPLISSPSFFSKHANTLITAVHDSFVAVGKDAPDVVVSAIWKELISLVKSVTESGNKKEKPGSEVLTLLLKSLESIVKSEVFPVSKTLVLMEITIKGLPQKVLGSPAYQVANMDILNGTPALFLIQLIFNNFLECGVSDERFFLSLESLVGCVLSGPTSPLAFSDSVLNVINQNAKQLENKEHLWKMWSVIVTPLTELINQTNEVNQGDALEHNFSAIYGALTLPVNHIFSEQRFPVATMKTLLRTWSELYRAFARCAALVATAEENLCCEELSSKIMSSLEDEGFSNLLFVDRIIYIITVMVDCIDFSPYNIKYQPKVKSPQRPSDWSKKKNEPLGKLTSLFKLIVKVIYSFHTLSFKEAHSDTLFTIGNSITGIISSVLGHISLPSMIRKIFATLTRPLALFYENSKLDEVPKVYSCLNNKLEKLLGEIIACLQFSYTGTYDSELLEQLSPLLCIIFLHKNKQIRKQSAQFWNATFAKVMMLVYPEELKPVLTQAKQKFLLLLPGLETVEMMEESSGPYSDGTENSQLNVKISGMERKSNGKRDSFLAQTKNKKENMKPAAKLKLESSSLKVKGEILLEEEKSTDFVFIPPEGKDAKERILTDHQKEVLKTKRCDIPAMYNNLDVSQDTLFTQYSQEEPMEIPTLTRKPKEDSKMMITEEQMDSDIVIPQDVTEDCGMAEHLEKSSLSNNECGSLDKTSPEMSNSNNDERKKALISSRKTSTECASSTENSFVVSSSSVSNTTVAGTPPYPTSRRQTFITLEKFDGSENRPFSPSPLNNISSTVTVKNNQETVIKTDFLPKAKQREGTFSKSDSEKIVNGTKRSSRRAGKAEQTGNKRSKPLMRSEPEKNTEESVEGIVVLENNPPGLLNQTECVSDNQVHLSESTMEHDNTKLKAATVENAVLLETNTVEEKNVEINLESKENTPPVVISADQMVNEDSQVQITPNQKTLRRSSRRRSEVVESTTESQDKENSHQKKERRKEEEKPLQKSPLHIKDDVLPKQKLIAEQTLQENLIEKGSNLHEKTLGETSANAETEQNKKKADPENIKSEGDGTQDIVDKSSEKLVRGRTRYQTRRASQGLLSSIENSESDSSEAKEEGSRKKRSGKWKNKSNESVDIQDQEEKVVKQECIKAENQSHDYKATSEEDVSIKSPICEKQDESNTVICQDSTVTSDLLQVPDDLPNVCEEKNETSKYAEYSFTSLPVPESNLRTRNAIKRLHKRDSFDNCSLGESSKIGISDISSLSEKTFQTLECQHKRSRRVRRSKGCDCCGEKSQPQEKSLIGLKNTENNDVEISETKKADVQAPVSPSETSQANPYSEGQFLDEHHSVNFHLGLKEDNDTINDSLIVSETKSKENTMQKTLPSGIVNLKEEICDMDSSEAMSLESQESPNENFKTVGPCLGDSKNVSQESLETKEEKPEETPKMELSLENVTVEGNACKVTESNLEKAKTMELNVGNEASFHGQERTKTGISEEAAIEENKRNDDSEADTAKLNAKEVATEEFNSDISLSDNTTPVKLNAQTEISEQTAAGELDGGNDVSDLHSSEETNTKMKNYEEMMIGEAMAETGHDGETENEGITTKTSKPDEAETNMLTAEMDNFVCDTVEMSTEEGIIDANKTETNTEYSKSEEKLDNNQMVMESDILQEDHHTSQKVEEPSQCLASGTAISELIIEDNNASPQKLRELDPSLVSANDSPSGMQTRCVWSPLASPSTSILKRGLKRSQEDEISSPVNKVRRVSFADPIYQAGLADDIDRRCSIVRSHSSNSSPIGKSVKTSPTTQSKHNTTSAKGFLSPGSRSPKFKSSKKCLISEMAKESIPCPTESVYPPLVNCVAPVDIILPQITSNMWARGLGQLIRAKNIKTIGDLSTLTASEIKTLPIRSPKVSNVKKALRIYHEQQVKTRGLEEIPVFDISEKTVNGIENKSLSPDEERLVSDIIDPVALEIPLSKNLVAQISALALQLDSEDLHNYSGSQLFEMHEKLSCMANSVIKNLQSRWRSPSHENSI
row,binding result,Binder
1,no binding,"TRF1 (other, human, UniProt P54274 2-439, looked up) AEDVSSAAPSPRGCADGRDADPTEEQMAETERNDEEQFECQELLECQVQVGAPEEEEEEEEDAGLVAEAEAVAAGWMLDFLCLSLCRAFRDGRSEDFRRTRNSAEAIIHGLSSLTACQLRTIYICQFLTRIAAGKTLDAQFENDERITPLESALMIWGSIEKEHDKLHEEIQNLIKIQAIAVCMENGNFKEAEEVFERIFGDPNSHMPFKSKLLMIISQKDTFHSFFQHFSYNHMMEKIKSYVNYVLSEKSSTFLMKAAAKVVESKRTRTITSQDKPSGNDVEMETEANLDTRKSVSDKQSAVTESSEGTVSLLRSHKNLFLSKLQHGTQQQDLNKKERRVGTPQSTKKKKESRRATESRIPVSKSQPVTPEKHRARKRQAWLWEEDKNLRSGVRKYGEGNWSKILLHYKFNNRTSVMLKDRWRTMKKLKLISSDSED"
2,no binding,"Rap1 (other, human, UniProt Q9NYB0 2-399, looked up, also called human Rap1) AEAMDLGKDPNGPTHSSTLFVRDDGSSMSFYVRPSPAKRRLSTLILHGGGTVCRVQEPGAVLLAQPGEALAEASGDFISTQYILDCVERNERLELEAYRLGPASAADTGSEAKPGALAEGAAEPEPQRHAGRIAFTDADDVAILTYVKENARSPSSVTGNALWKAMEKSSLTQHSWQSLKDRYLKHLRGQEHKYLLGDAPVSPSSQKLKRKAEEDPEAADSGEPQNKRTPDLPEEEYVKEEIQENEEAVKKMLVEATREFEEVVVDESPPDFEIHITMCDDDPPTPEEDSETQPDEEEEEEEEKVSQPEVGAAIKIIRQLMEKFNLDLSTVTQAFLKNSGELEATSAFLASGQRADGYPIWSRQDDIDLQKDDEDTREALVKKFGAQNVARRIEFRKK"
3,no binding,"TRF2 (other, human, UniProt Q15554 1-542, looked up) MAAGAGTAGPASGPGVVRDPAASQPRKRPGREGGEGARRSDTMAGGGGSSDGSGRAAGRRASRSSGRARRGRHEPGLGGPAERGAGEARLEEAVNRWVLKFYFHEALRAFRGSRYGDFRQIRDIMQALLVRPLGKEHTVSRLLRVMQCLSRIEEGENLDCSFDMEAELTPLESAINVLEMIKTEFTLTEAVVESSRKLVKEAAVIICIKNKEFEKASKILKKHMSKDPTTQKLRNDLLNIIREKNLAHPVIQNFSYETFQQKMLRFLESHLDDAEPYLLTMAKKALKSESAASSTGKEDKQPAPGPVEKPPREPARQLRNPPTTIGMMTLKAAFKTLSGAQDSEAAFAKLDQKDLVLPTQALPASPALKNKRPRKDENESSAPADGEGGSELQPKNKRMTISRLVLEEDSQSTEPSAGLNSSQEAASAPPSKPTVLNQPLPGEKNPKVPKGKWNSSNGVEEKETWVEEDELFQVQAAPDEDSTTNITKKQKWTVEESEWVKAGVQKYGEGNWAAISKNYPFVNRTAVMIKDRWRTMKRLGMN"
